# B1: rF1: recombinantly produced F1, fully human IgG1 anti-SDR monoclonal antibody binding S. aureus and S. epidermidis (antibody, V domains shown)
# VH: EVQLVESGGGLVQPGGSLRLSCAASGFTLSRFAMSWVRQAPGRGLEWVASINNGNNPYYARSVQYRFTVSRDVSQNTVSLQMNNLRAEDSATYFCAKDHPSSGWPTFDSWGPGTLVTVSS
# VL: DIQLTQSPSALPASVGDRVSITCRASENVGDWLAWYRQKPGKAPNLLIYKTSILESGVPSRFSGSGSGTEFTLTISSLQPDDFATYYCQHYMRFPYTFGQGTKVEIKRTV
# Tests used:
# [1] = test system: MRSA strain USA300; experiment: Flow cytometry binding of mAbs to USA300 bacteria; set-up: species or system Staphylococcus aureus; settings: MFI
# Method: (§1) (FIGS. 5A-C) Bacteria were preopsonized with huIgG1 mAbs rF1 (squares), 4675 anti-ClfA (triangles), or anti-herpes virus gD (circles). (FIG. 5A): Binding of mAbs to WT (USA300-Aspa) bacteria was assessed by flow cytometry, and expressed as mean fluorescent intensity (MFI). (FIG. 5B): CFSE-labeled, preopsonized WT (USA300-Aspa) bacteria were incubated with human PMN. Bacterial uptake was expressed as % of CFSE-positive PMN, after gating for CD11b-positive cells by flow cytometry. (FIG. 5C): Preopsonized WT (USA300-Aspa) bacteria were incubated with PMN to assess bacterial killing. Numbers of viable CFU per mL are representative of at least three experiments.
# (§2) Whole bacteria were harvested from TSA plates or TSB cultures and washed with HBSS without phenol red supplemented with 0.1% IgG free BSA (Sigma) and 10 mM Hepes, pH 7.4 (HB buffer) Bacteria (20×10^8 CFU/mL) were incubated with 300 μg/mL of rabbit IgG (Sigma) in HB buffer for 1 h at room temperature (RT) to block nonspecific IgG binding. Bacteria were stained with 2 μg/mL of primary antibodies, including rF1 or isotype control IgG1 mAb gD:5237 (Nakamura G R, et al. (1993) J Virol 67: 6179-6191), and next with fluorescent anti-human IgG secondary antibodies (Jackson Immunoresearch, West Grove, Pa.). The bacteria were washed and analyzed by FACSCalibur® (BD).
# [2] = test system: USA300; experiment: Uptake and killing of preopsonized USA300 by human PMN; assay type: cell-based, Staphylococcus aureus
# Method: as §1
# [3] = test system: 15 S. aureus strains; experiment: FACS analysis of rF1 binding to S. aureus strains; set-up: species or system Staphylococcus aureus; settings: flow cytometry, all 15 strains tested
# Method: as §2
# [4] = test system: USA300 derived from infected mouse kidneys, livers and lungs; experiment: FACS analysis of rF1 binding to USA300 from infected mouse tissues; set-up: species or system Staphylococcus aureus
# Method: (§3) For antibody staining of bacteria from infected mouse tissues, 6-8 weeks old female C57Bl/6 mice (Charles River, Wilmington, Mass.) were injected intravenously with 10^8 CFU of logphase-grown USA300 in PBS. Mouse organs were harvested two days after infection. Rabbit infective endocarditis (IE) was established as described in Tattevin P, et al. (2010) Antimicrobial agents and chemotherapy 54: 610-613. Rabbits were injected intravenously with 5×10^7 CFU of stationary-phase grown MRSA strain COL, and heart vegetations were harvested eighteen hours later. Treatment with 30 mg/kg of vancomycin was given intravenously b.i.d. 18 h after infection with 7×10^7 CFU stationary-phase COL.
# (§4) To lyse mouse or rabbit cells, tissues were homogenized in M tubes (Miltenyi, Auburn, Calif.) using a gentleMACS® cell dissociator (Miltenyi), followed by incubation for 10 min at RT in PBS containing 0.1% Triton-X100 (Thermo), 10 µg/mL of DNAseI (Roche) and Complete Mini protease inhibitor cocktail (Roche). The suspensions were passed through a 40 micron filter (BD) and bacteria were stained with mAbs as described above. […] During flow cytometry analysis, bacteria were gated for positive staining with mAb 702 from double fluorescence plots. […]
# [5] = test system: MRSA COL bacteria from heart vegetations; experiment: FACS analysis of rF1 binding to bacteria from rabbit infective endocarditis heart vegetations; set-up: species or system Staphylococcus aureus; settings: rabbit model of infectious endocarditis
# Method: as §3, §4
# [6] = test system: S. epidermidis; experiment: FACS analysis of rF1 binding to S. epidermidis; set-up: species or system Staphylococcus epidermidis; settings: flow cytometry
# Method: as §2
# [7] = test system: S. saprophyticus, S. lugdunensis, S. simulans, S. carnosus, Streptococcus pyogenes, Bacillus subtilis, Enterococcus faecalis, Listeria monocytogenes; experiment: FACS analysis of rF1 binding to other staphylococcal and Gram-positive species; settings: flow cytometry
# Method: as §2
molecule,measurement,setting,value
B1,maximum binding relative to isotype-matched anti-ClfA mAb,[1],approximately 10 fold
same,viability of USA300 in the absence of PMN,[2]; no PMN,did not affect viability
same,bacterial killing by PMN (viability),"[2]; preopsonized USA300, human PMN",potent killing
same,bacterial uptake by PMN,"[2]; preopsonized USA300, human PMN",increased uptake
same,binding to S. aureus strains,[3],potent binding activity
same,binding to USA300 from infected mouse tissues,"[4]; kidneys, livers and lungs after systemic infection",strongly bound
same,duration of sustained binding to USA300 from mouse kidneys after infection,[4]; mouse kidneys,at least 8 days
same,binding to MRSA COL from rabbit heart vegetations,[5],strongly bound
same,binding to S. epidermidis,[6],detectable
same,binding to other staphylococcal and Gram-positive species,[7],did not bind

# From patent US20180125995A1, “ANTI-STAPHYLOCOCCUS AUREUS ANTIBODY RIFAMYCIN CONJUGATES AND USES THEREOF” (priority 2014, published 2018)
